Target: T1, Gal4 DNA-binding domain (DNABD) linked to the full-length CIITA (pSGCIITA) (UniProt P33076 1-1130)
T1 sequence: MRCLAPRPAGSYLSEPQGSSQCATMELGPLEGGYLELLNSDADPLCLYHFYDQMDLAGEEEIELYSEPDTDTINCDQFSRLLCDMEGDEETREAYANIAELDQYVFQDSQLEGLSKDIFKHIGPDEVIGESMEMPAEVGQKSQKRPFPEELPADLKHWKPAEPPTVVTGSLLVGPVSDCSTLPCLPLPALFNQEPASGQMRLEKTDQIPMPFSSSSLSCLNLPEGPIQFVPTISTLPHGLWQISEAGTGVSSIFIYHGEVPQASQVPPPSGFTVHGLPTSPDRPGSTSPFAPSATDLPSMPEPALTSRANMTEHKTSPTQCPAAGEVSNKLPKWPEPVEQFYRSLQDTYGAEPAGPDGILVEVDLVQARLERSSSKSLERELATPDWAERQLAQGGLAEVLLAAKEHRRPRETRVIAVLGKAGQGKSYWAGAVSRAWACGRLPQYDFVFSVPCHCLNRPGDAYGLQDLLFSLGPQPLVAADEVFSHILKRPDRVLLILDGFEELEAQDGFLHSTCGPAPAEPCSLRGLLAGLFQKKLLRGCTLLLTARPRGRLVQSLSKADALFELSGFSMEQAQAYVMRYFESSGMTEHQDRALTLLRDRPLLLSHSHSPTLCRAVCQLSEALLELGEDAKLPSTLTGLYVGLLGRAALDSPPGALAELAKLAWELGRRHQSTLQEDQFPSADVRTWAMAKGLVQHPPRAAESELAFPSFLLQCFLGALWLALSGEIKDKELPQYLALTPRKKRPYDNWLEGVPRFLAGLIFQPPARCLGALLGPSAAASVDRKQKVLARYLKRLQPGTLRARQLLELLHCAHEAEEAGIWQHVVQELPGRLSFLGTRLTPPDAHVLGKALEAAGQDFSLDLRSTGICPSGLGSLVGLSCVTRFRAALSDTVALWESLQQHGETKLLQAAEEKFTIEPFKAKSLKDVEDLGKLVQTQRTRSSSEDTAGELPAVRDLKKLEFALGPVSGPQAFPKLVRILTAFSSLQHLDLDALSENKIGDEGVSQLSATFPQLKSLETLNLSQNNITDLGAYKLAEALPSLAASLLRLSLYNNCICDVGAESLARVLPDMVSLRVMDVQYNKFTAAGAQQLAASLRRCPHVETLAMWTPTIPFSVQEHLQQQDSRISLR
Test: two-hybrid

B1: Bob1 expressed from pCBOB1 (natural protein)
chain: MLWQKPTAPEQAPAPARPYQGVRVKEPVKELLRRKRGHASSGAAPAPTAVVLPHQPLATYTTVGPSCLDMEGSVSAVTEEAALCAGWLSQPTPATLQPLAPWTPYTEYVPHEAVSCPYSADMYVQPVCPSYTVVGPSSVLTYASPPLITNVTTRSSATPAVGPPLEGPEHQAPLTYFPWPQPLSTLPTSTLQYQPPAPALPGPQFVQLPISIPEPVLQDMEDPRRAASSLTIDKLLLEEEDSDAYALNHTLSVEGF
fold transactivation of pDRAUASgCAT (CAT reporter, with OBS): 95 fold
fold transactivation of pG1E1bCAT (CAT reporter, no OBS): 90 fold

— paper PMC2192624 (The Journal of Experimental Medicine, 1996)
